Data published in patent US7442375B2, “Compositions of beta-defensin inducing agents” (Case Western Reserve University, priority 2002, dated 2008).

Experiments:
CXCR4 = CXCR4 (Homo sapiens, UniProt P61073); assay: Flow cytometric analysis of co-receptor surface expression on unstimulated PBMC; assay type: cell-based; design: endogenous in cells; host or cells: unstimulated peripheral blood mononuclear cells (PBMC); conditions: 30 μg/ml, 3 h, high salt medium without FBS
Procedure: (§1) Unstimulated PBMC were treated for 3 hrs with hBD-1, -2, or -3 (30 μg/ml) in DMEM (high salt) in the absence of FBS. The CXCR4 natural ligand SDF-1AE (2 μg/ml) and the CCR5 antagonist PSC-RANTES (100 nM) were used as positive controls. CXCR4 and CCR5 surface expression was calculated using known ratios of QuantiBRITE-PE beads (Becton Dickenson) by flow cytometry. Results are the means of seven experiments±SD.
(§2) Unstimulated PBMC were treated with 30 μg/ml hBD-1, -2, or -3 in high salt medium (RPMI-1640) in the absence of FBS, 3 h. The CXCR4 natural ligand SDF-1α (R&D Systems, Minneapolis, Minn., USA) and the CCR5 antagonist PSC-RANTES were used as controls. Cells were incubated with peridinin chlorophyll protein-conjugated anti-human CD4 antibody, and either phycoerythrin (PE)-conjugated anti-human CXCR4 antibody, PE-conjugated anti-human CCR5 antibody, or PE-conjugated mouse immunoglobulin G2a (IgG2a), isotype standard (PharmMingen, San Diego, Calif., USA) [Salkowitz et al.]. Fluorescence intensity was reported as receptor density by quantitative flow cytometry (FACSCaliber; Becton Dickenson, San Jose, Calif., USA) [Iyer et al.]. Data were analyzed using CELLQuest software (Becton Dickenson).
(§3) Surface expression of CXCR4 was decreased by 51%±18% and 52%±20% (SD) respectively after incubation with 30 μg/ml of hBD-2 or hBD-3 (FIG. 5).

CCR5 = CCR5 (Homo sapiens, UniProt P51681); assay: as above; assay type: cell-based; design: endogenous in cells; host or cells: unstimulated peripheral blood mononuclear cells (PBMC); conditions: 30 μg/ml, 3 h, high salt medium without FBS
CCR5, sequence (P51681 whole entry): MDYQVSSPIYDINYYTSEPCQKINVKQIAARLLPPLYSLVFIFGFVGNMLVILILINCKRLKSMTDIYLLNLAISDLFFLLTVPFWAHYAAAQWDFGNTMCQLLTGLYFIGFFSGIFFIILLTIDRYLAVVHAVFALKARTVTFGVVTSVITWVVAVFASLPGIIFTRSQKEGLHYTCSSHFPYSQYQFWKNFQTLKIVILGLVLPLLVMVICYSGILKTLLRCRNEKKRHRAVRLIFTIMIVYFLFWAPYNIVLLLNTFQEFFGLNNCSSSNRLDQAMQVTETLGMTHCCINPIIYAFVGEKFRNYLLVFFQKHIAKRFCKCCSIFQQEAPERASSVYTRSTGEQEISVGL
Procedure: as §1, §2, §3

CXCR4, sequence (P61073 whole entry): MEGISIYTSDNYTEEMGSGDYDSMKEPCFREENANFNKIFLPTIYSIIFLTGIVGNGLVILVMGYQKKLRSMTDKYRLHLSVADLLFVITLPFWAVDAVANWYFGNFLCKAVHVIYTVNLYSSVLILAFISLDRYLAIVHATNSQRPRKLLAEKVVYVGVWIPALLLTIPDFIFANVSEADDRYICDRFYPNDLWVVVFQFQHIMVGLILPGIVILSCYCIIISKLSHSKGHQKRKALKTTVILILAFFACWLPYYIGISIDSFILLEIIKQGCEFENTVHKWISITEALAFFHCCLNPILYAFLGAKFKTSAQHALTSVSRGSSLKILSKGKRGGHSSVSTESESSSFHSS

B1: hBD-3: Recombinant human β-defensin 3 produced using an hBD-3-His tag fusion construct cloned into pET-30c; exemplary sequence SEQ ID NO:15 (protein, listed as Homo sapiens)
chain: MRIHYLLFALLFLFLVPVPGHGGIINTLQKYYCRVRGGRCAVLSCLPKEEQIGKCSTRGRKCCRRKK
modifications: not fully specified (C-terminus); ends and bridges not checked
For B1, the “decrease of surface expression of CXCR4 (±SD)” value (CXCR4) was 52%±20% and the “effect on CCR5 expression” value (CCR5) was “not altered”.
